In patent US20240400717A1, “Antibody Binding to CHI3L1 for Treating Cancer” (National Cheng Kung University, priority 2021, published 2024):

B1: 293R3-2: fully human anti-CHI3L1 IgG1 mAb, Table 1 No. 2; heavy chain SEQ ID NO: 65, light chain SEQ ID NO: 66 (antibody, listed as Homo sapiens)
VH: QVQLQESGPGLVEPSGTLSLTCAVSGGSISSSNWWSWVRQHPGKGLEWIGEIYHSGSTNYNPSLRSRVTISVDKSKNQFSLELSSVTAADTAVYYCAGDQRMEDDAFDIWGQGTMVTVSS
light: QSALTQPASVSGSPGQSITISCTGTSSDVGGYNYVSWYQQHPGKAPKLMIYDVSNRPSGVSNRFSGSKSGNTASLTISGLQAEDEADYYCSSYTSSSTLYVFGTGTKVTVLGQPKANPTVTLFPPSSEELQANKATLVCLISDFYPGAVTVAWKADGSPVKAGVETTKPSKQSNNKYAASSYLSLTPEQWKSHRSYSCQVTHEGSTVEKTVAPTECS
B2: 293R3-4: fully human anti-CHI3L1 IgG1 mAb, Table 1 No. 4; heavy chain SEQ ID NO: 73, light chain SEQ ID NO: 74 (antibody, listed as Homo sapiens)
VH: EVQLVQSGAEVKKPGATVKISCKVSGYSFTDYYIHWVQQAPGKGLEWMGFVDPENGETIYAEKFQGRVTITADTSTDTAYMELSSLRSDDTAVYYCATDRDYDDSSGNAFDIWGQGTMVTVSS
light: SYELTQPPSVSVSTGQTATITCSGDILGDEYAFWYQQKAGQSPVLVIYLDTRRPSGIPERFSGSNSGDTATLTISETQPVDEAVYFCQGWDSSTALYVFGTGTKVTVLGQPKANPTVTLFPPSSEELQANKATLVCLISDFYPGAVTVAWKADGSPVKAGVETTKPSKQSNNKYAASSYLSLTPEQWKSHRSYSCQVTHEGSTVEKTVAPTECS
B3: R4-4: fully human anti-CHI3L1 IgG1 mAb, Table 1 No. 9; heavy chain SEQ ID NO: 9, light chain SEQ ID NO: 10 (antibody, listed as Homo sapiens)
VH: EVQLLESGGGLLQPGGSLRLSCAASGLTFRNYAMTWVRQAPGKGLEWVSTISGNGDETFYADSVKGHFTISRDNSKDTVYLQMNSLRAEDTAVYYCAKGGHYSFFDSWGQGSPVTVSS
light: NFMLTQPHSVSESPGKTVTISCTRSSGSIASNYVQWYQQRPGSSPTTVIYEDNQRPSGVPDRFSGSIDSSSNSASLTISGLKTEDEADYYCQSYDSSNYVFGTGTKVTVLGQPKANPTVTLFPPSSEELQANKATLVCLISDFYPGAVTVAWKADGSPVKAGVETTKPSKQSNNKYAASSYLSLTPEQWKSHRSYSCQVTHEGSTVEKTVAPAECS

Experiments:
[1] = biological target: CHI3L1-receptor(s) interaction on HCT116, SW480, SW620, PANC1 and MiaPaCa-2 (Homo sapiens, UniProt P36222); assay: Flow cytometry blockage of rCHI3L1-receptor(s) interaction, colorectal and pancreatic cancer cell lines; type: cell-based; conditions: HCT116, SW480, SW620, PANC1, MiaPaCa-2, flow cytometry
Protocol: CHI3L1 have been reported to interact with several receptors on cancer cells, and trigger downstream signaling for cancer cell growth, proliferation and anti-apoptosis (Kamba et al. 2013; Lee et al. 2016). […] His-tagged rCHI3L1 was added for CHI3L1-receptor(s) interaction. Anti-His antibody AHAb with fluorescent F recognized CHI3L1-receptor(s) R complex for detection (left, FIG. 4A). Once fully human mAbs (nCHI3L1 Ab) blocked the CHI3L1-receptor(s) interaction, the fluorescent F signals were decreased (right, FIG. 4A) and cell signaling CS was blockade.
(§1) Four selected clones of mAbs including R4-4, R4-54, 293R3-2, and 293R3-4 were further tested for blocking effect on human colorectal (HCT116, SW480, and SW620) and pancreatic cancer cell lines (PANC1 and MiaPaCa-2). […] P values were determined by one-way ANOVA. * P<0.05, ** P<0.01, *** P<0.001, **** P<0.0001. For binding specificity examination, we further coated different concentration of recombinant CHI3L1 protein, and two other major proteins in chitinase family including human chitotriosidase-1 (CHIT1) and CHI3L2 from 2.5 μg/ml to 0 μg/ml, on 96-well plate.

[2] = biological target: recombinant CHI3L1 protein (Homo sapiens, UniProt P36222); assay: ELISA binding specificity, CHI3L1; conditions: mAbs 1 μg/ml; coated protein 2.5 μg/ml to 0 μg/ml
Protocol: as §1

[3] = biological target: human chitotriosidase-1 (CHIT1) (Homo sapiens, UniProt Q13231); assay: ELISA binding specificity, CHIT1; conditions: mAbs 1 μg/ml; coated protein 2.5 μg/ml to 0 μg/ml
Protocol: as §1

[4] = test system: PANC1 cells; assay: Immunoblot of rCHI3L1-induced AKT and ERK phosphorylation, PANC1; type: cell-based, human; conditions: PANC1, rCHI3L1 100 ng/ml, 20 minutes, different dose of mAbs
Protocol: The involvement of CHI3L1 in intracellular signaling pathways has been reported. For example, CHI3L1 binding to CD44 activates protein kinase B (AKT) and extracellular signal-regulated kinase (ERK) signaling to promote cancer progression (Chen, Jiang et al. 2021). Thus, we tested whether mAb clones R4-4, R4-54, 293R3-2, and 293R3-4 could attenuate AKT and ERK phosphorylation in human pancreatic (PANC1), colorectal (HCT116), and lung (A549) cancer cell lines. PANC1 cells were treated with rCHI3L1 (100 ng/ml) only or rCHI3L1 with different dose of mAbs as indicated for 20 minutes.

[5] = test system: PANC1 and H460 cells; assay: CCK-8 cell viability assay with rCHI3L1; type: cell-based, human; conditions: PANC1 and H460, rCHI3L1 with mAbs at two doses
Protocol: PI3K/AKT/mTOR signaling pathway is important in regulating cell proliferation, survival and migration (Xu et al. 2020). Therefore, we investigated the effect of four selected mAbs on cancer cell behaviors. Human pancreatic (PANC1) and large cell cancer of the lung (H460) cells were treated with rCHI3L1 only or together with mAbs at two doses, and then subjected to cell counting kit 8 (CCK-8) cell viability assay. […] P values were determined by one-way ANOVA. * P<0.05, ** P<0.01, *** P<0.001, **** P<0.0001.

[6] = test system: SW480 and SW620 cells; assay: rCHI3L1-induced foci formation; type: cell-based, human
[7] = biological target: T1, hCHI3L1/flag-His (Homo sapiens, UniProt P36222); assay: ForteBio biolayer interferometry binding analysis; conditions: for koff / kon: mAb loaded on AHC sensor, analyte hCHI3L1
T1 construct: human CHI3L1 extracellular domain fused with flag and His tag
Protocol: Anti-CHI3L1 mAbs were loaded at 5 μg/mL on AHC (Anti-Human IgG Fc Capture, ForteBio, Cat #18-5060) for signal reach to approximate 0.5 nm. Sensors then were exposed to human CHI3L1 extracellular domain fused with flag and His tag recombinant protein, hCHI3L1/flag-His, solutions at 10 nM with 2 time serial dilution for 7 concentrations. Measurement were performed as follows: 1 min baseline in kinetic buffer, 5 minute association in 7 different concentrations hCHI3L1/flag-His and 5 minute dissociation into kinetic buffer. The kinetic parameters were calculated and produced by Octet Data Acquisition and Analysis Software.

[8] = biological target: T1, hCHI3L1/flag-His; assay: In tandem epitope binning on Octet Red96; type: binding; conditions: for epitope cluster: among four anti-CHI3L1 mAbs; for competitive binding class, CHI3L1 293R3-2: paired with CHI3L1 293R3-2; for Epitope Binning Heat Map value, CHI3L1 293R3-2: paired with CHI3L1 293R3-2, 100 nM each; for competitive binding class, CHI3L1 293R3-4: paired with CHI3L1 293R3-4; for Epitope Binning Heat Map value, CHI3L1 293R3-4: paired with CHI3L1 293R3-4, 100 nM each; for competitive binding class, CHI3L1 R4-4: paired with CHI3L1 R4-4; for Epitope Binning Heat Map value, CHI3L1 R4-4: paired with CHI3L1 R4-4, 100 nM each; for competitive binding class, CHI3L1 R4-54: paired with CHI3L1 R4-54; for Epitope Binning Heat Map value, CHI3L1 R4-54: paired with CHI3L1 R4-54, 100 nM each
Protocol: In order to know the epitopic coverage for those four antibodies to increase the success of therapeutic CHI3L1 antibody development, epitope binning is used to characterize the binding site of mAbs to the corresponding antigen and summarized in the Table 4. In epitope binning, mAbs specific to the same target protein are tested pairwise against all mAbs in a set to assess whether they block one another's binding to a specific site of the antigen or not. The mAbs that block binding to the same epitope are “binned” together. mAbs within the same bin often function similarly, so epitope bins can narrow down the choices to fewer candidates for investigators to choose from. The in tandem epitope binning assay conducted on Octet Red96 comprised a five-step binding cycle; 1) a buffer baseline was established for 30 sec, 2) 100 nM hCHI3L1/flag-His was captured for 5 min, 3) 100 nM mAb array was loaded to saturate the captured antigen for 10 min, 4) 100 nM of the test mAb was bound for 5 min, and 5) the capture surfaces were regenerated for 30 sec. Anti-His surfaces were regenerated with 10 mM glycine pH 1.7. Raw data was processed using ForteBio's Data Analysis HT Software 11.1 and the antibody pairs were assessed for competitive binding. Additional binding by the second antibody indicates an unoccupied epitope (non-competitor, marked as *c in Table 4), while no binding indicates epitope blocking (competitor, marked as *b in Table 4) and self-competing antibodies were marked as *a in Table 4. Among four anti-CHI3L1 mAbs, there are two epitope clusters.

Chain of human chitotriosidase-1 (CHIT1) (Q13231 22-466): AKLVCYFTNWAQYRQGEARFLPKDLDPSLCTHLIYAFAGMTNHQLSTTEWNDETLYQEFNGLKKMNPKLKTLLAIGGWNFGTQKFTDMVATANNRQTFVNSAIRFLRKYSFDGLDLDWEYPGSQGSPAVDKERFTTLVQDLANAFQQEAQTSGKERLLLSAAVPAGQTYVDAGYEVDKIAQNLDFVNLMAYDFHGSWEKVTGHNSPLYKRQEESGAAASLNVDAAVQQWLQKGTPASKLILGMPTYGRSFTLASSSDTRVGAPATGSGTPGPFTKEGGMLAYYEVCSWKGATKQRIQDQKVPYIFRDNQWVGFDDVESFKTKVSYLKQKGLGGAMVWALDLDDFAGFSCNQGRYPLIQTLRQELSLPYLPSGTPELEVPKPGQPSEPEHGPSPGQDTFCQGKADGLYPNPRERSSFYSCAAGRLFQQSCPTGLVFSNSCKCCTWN
Chain of CHI3L1-receptor(s) interaction on HCT116, SW480, SW620, PANC1 and MiaPaCa-2 (P36222 22-383): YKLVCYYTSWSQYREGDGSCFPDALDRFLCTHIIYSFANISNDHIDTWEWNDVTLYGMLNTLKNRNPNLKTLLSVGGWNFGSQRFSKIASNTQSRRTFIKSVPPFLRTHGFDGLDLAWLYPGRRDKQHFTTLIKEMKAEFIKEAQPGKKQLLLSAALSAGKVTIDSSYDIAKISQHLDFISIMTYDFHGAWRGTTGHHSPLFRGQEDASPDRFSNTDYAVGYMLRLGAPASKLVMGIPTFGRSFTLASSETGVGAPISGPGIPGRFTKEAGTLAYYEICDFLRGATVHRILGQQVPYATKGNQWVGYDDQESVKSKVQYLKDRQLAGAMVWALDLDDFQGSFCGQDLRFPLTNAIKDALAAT
Chain of recombinant CHI3L1 protein (P36222 22-383): as above
T1 sequence (P36222 22-383): as above

Molecule	rCHI3L1 binding to cells [1]	binding specificity: recognition of CHI3L1 [2]	binding specificity: recognition of CHIT1 [3]	p-AKT and p-ERK levels induced by rCHI3L1 [4]	cell viability (CCK-8) [5]	number of foci [6]	koff [7] [s⁻¹]	kon [7] [M⁻¹ s⁻¹]	epitope cluster [8]	competitive binding class, CHI3L1 293R3-2 [8]	Epitope Binning Heat Map value, CHI3L1 293R3-2 [8]	competitive binding class, CHI3L1 293R3-4 [8]	Epitope Binning Heat Map value, CHI3L1 293R3-4 [8]	competitive binding class, CHI3L1 R4-4 [8]	Epitope Binning Heat Map value, CHI3L1 R4-4 [8]	competitive binding class, CHI3L1 R4-54 [8]	Epitope Binning Heat Map value, CHI3L1 R4-54 [8]	binding kinetics profile compare to other mAbs [7]
B1	significantly reduced	specifically recognized CHI3L1	no other chitinase proteins	inhibited p-AKT and p-ERK levels induced by rCHI3L1 in a dose dependent manner	reduced the viability	decreased in a dose-dependent manner	0.00302	1.08e+06	unidirectional blocking results	*^a	0.2110	*^c	0.6303	*^c	0.7478	*^c	0.7349	
B2	significantly reduced	specifically recognized CHI3L1	no other chitinase proteins	inhibited p-AKT and p-ERK levels induced by rCHI3L1 in a dose dependent manner	reduced the viability	decreased in a dose-dependent manner	0.00722	1.83e+06	unidirectional blocking results	*^b	0.1221	*^a	0.3014	*^c	1.1089	*^c	0.4217	
B3	significantly reduced	specifically recognized CHI3L1	no other chitinase proteins	inhibited p-AKT and p-ERK levels induced by rCHI3L1 in a dose dependent manner	reduced the viability	decreased in a dose-dependent manner	0.000353		exclusive epitope	*^c	0.5680	*^c		*^a	0.1232	*^c	1.3845	slower on-rate (kon) and off-rate (koff)
